Reference: the Immune Epitope Database (IEDB)

Tests used:
Assay in all cases: IEDB peptide-MHC binding, purified MHC/competitive/radioactivity; filed as Kd, often an IC50 or EC50 that approximates it; ≥ and ≤ were set here for values at or beyond the usual limits of such assays
HLA-A*68:02 = target: HLA-A*68:02
HLA-B*18:01 = target: HLA-B*18:01
HLA-B*44:03 = target: HLA-B*44:03
HLA-B*45:01 = target: HLA-B*45:01
HLA-B*40:02 = target: HLA-B*40:02
HLA-B*40:01 = target: HLA-B*40:01
HLA-B*44:02 = target: HLA-B*44:02
HLA-A*02:02 = target: HLA-A*02:02
HLA-A*02:03 = target: HLA-A*02:03
HLA-A*02:06 = target: HLA-A*02:06
HLA-A*02:01 = target: HLA-A*02:01
HLA-A*26:01 = details: source organism: Dengue virus 3 Martinique/1243/1999
[1] = source organism: Dengue virus 3 Martinique/1243/1999
[2] = source organism: SARS coronavirus Tor2
[3] = source organism: Lassa virus Josiah
[4] = source organism: Mammarenavirus brazilense
[5] = source organism: Dengue virus 1 Brazil/97-11/1997
[6] = source organism: Mammarenavirus tacaribeense
[7] = source organism: Trypanosoma cruzi
[8] = source organism: Mammarenavirus lassaense
[9] = source organism: Mammarenavirus guanaritoense
[10] = source organism: Mammarenavirus juninense
[11] = source organism: Lymphocytic choriomeningitis virus (strain Armstrong)

**Q.** How did the Kd (HLA-A*68:02; [1]) turn out when TSIGLICVIA was run?
**A.** 35.5 nM

**Q.** Which results are given for MEKLKALVA?
**A.** Kd (HLA-B*18:01; [2]): 5490 nM; Kd (HLA-B*44:03; [2]): 277 nM; Kd (HLA-B*45:01; [2]): 24.1 nM; Kd (HLA-B*40:02; [2]): 176 nM; Kd (HLA-B*40:01; [2]): 152 nM; Kd (HLA-B*44:02; [2]): 568 nM

**Q.** Which results are given for YLISIFLHLV?
**A.** Kd (HLA-A*02:02; [3]): 2.73 nM; Kd (HLA-A*02:03; [3]): 1.72 nM; Kd (HLA-A*68:02; [3]): 167 nM; Kd (HLA-A*02:06; [3]): 8.6 nM

**Q.** For MTTIGIVLL, which Kd (HLA-A*68:02; source organism: Dengue virus 2 Peru/IQT2913/1996) is on record?
**A.** 50.1 nM

**Q.** What does the source list for EEVPNIIHEA?
**A.** Kd (HLA-B*18:01; [4]): 12400 nM; Kd (HLA-B*44:03; [4]): 16000 nM; Kd (HLA-B*45:01; [4]): 269 nM; Kd (HLA-B*40:02; [4]): 790 nM; Kd (HLA-B*40:01; [4]): ≥ 20400 nM; Kd (HLA-B*44:02; [4]): ≥ 26900 nM

**Q.** How did the Kd (HLA-A*68:02; [5]) turn out when LTMKEKSWLV was run?
**A.** 250 nM

**Q.** What about the Kd (HLA-A*02:06; [5]) of the same sequence?
**A.** 73.8 nM

**Q.** How did the Kd (HLA-A*68:02; [1]) turn out when CSAVPVHWV was run?
**A.** 11.1 nM

**Q.** How did the Kd (HLA-A*02:02; source organism: Homo sapiens) turn out when SMEAEMIQL was run?
**A.** 70 nM

**Q.** What about the Kd (HLA-A*02:01; source organism: Homo sapiens) of the same sequence?
**A.** 39.8 nM

**Q.** What about the Kd (HLA-A*02:03; source organism: Homo sapiens) of the same sequence?
**A.** 2380 nM

**Q.** What about the Kd (HLA-A*68:02; source organism: Homo sapiens) of the same sequence?
**A.** ≥ 52500 nM

**Q.** How did the Kd (HLA-B*18:01; [6]) turn out when AEFKSRFFVM was run?
**A.** 37.2 nM

**Q.** What about the Kd (HLA-B*44:03; [6]) of the same sequence?
**A.** 87.2 nM

**Q.** What about the Kd (HLA-B*45:01; [6]) of the same sequence?
**A.** 290 nM

**Q.** And the Kd (HLA-B*40:02; [6])?
**A.** 3.57 nM

**Q.** And the Kd (HLA-B*40:01; [6])?
**A.** 41.6 nM

**Q.** What about the Kd (HLA-B*44:02; [6]) of the same sequence?
**A.** 192 nM

**Q.** With RLLPSLLLLL as the sequence, how does the Kd (HLA-A*02:02; [7]) read?
**A.** 0.28 nM

**Q.** What about the Kd (HLA-A*02:03; [7]) of the same sequence?
**A.** 0.915 nM

**Q.** And the Kd (HLA-A*68:02; [7])?
**A.** 7220 nM

**Q.** What about the Kd (HLA-A*02:06; [7]) of the same sequence?
**A.** 0.585 nM

**Q.** WVSGVSGNI was tested. Which Kd (HLA-A*68:02; source organism: Dengue virus 4 Philippines/H241/1956) did it give?
**A.** 10.1 nM

**Q.** SEAQMSIQLI was tested. Which Kd (HLA-B*18:01; [8]) did it give?
**A.** 13900 nM

**Q.** What about the Kd (HLA-B*44:03; [8]) of the same sequence?
**A.** 235 nM

**Q.** What about the Kd (HLA-B*45:01; [8]) of the same sequence?
**A.** 997 nM

**Q.** And the Kd (HLA-B*40:02; [8])?
**A.** 936 nM

**Q.** And the Kd (HLA-B*40:01; [8])?
**A.** 1800 nM

**Q.** What about the Kd (HLA-B*44:02; [8]) of the same sequence?
**A.** 30.4 nM

**Q.** Which Kd (HLA-A*02:02; [7]) does the source give for DVSRPTTVV here?
**A.** 16300 nM

**Q.** And the Kd (HLA-A*02:01; [7])?
**A.** ≥ 35900 nM

**Q.** And the Kd (HLA-A*02:03; [7])?
**A.** ≥ 38100 nM

**Q.** And the Kd (HLA-A*68:02; [7])?
**A.** 37.7 nM

**Q.** What about the Kd (HLA-A*02:06; [7]) of the same sequence?
**A.** 12800 nM

**Q.** GEQVDLGPVL was tested. Which Kd (HLA-B*18:01; [9]) did it give?
**A.** 12100 nM

**Q.** What about the Kd (HLA-B*44:03; [9]) of the same sequence?
**A.** ≥ 43500 nM

**Q.** And the Kd (HLA-B*45:01; [9])?
**A.** 1900 nM

**Q.** What about the Kd (HLA-B*40:02; [9]) of the same sequence?
**A.** 52.6 nM

**Q.** What about the Kd (HLA-B*40:01; [9]) of the same sequence?
**A.** 9030 nM

**Q.** And the Kd (HLA-B*44:02; [9])?
**A.** ≥ 32700 nM

**Q.** What does the source list for ETYQLWTAL?
**A.** Kd (HLA-A*68:02; [1]): 3.39 nM; Kd (HLA-A*26:01): 181 nM

**Q.** Which results are given for EELSTLYEAL?
**A.** Kd (HLA-B*18:01; [4]): 371 nM; Kd (HLA-B*44:03; [4]): 595 nM; Kd (HLA-B*45:01; [4]): 2080 nM; Kd (HLA-B*40:02; [4]): 121 nM; Kd (HLA-B*40:01; [4]): 1260 nM; Kd (HLA-B*44:02; [4]): 1890 nM

**Q.** PELELNVDAM was tested. Which Kd (HLA-B*18:01; [10]) did it give?
**A.** 367 nM

**Q.** And the Kd (HLA-B*44:03; [10])?
**A.** ≥ 70100 nM

**Q.** What about the Kd (HLA-B*45:01; [10]) of the same sequence?
**A.** ≥ 70000 nM

**Q.** And the Kd (HLA-B*40:02; [10])?
**A.** 796 nM

**Q.** And the Kd (HLA-B*40:01; [10])?
**A.** ≥ 69500 nM

**Q.** What about the Kd (HLA-B*44:02; [10]) of the same sequence?
**A.** ≥ 70200 nM

**Q.** Which results are given for RELLGYCVSL?
**A.** Kd (HLA-B*18:01; [4]): 12800 nM; Kd (HLA-B*44:03; [4]): 5060 nM; Kd (HLA-B*45:01; [4]): 4850 nM; Kd (HLA-B*40:02; [4]): 5.07 nM; Kd (HLA-B*40:01; [4]): 9820 nM; Kd (HLA-B*44:02; [4]): 1920 nM

**Q.** For HDFGIPTPS, which Kd (HLA-B*18:01; [8]) is on record?
**A.** 18200 nM

**Q.** And the Kd (HLA-B*44:03; [8])?
**A.** ≥ 78100 nM

**Q.** What about the Kd (HLA-B*45:01; [8]) of the same sequence?
**A.** 1460 nM

**Q.** What about the Kd (HLA-B*40:02; [8]) of the same sequence?
**A.** 76.6 nM

**Q.** And the Kd (HLA-B*40:01; [8])?
**A.** 13700 nM

**Q.** And the Kd (HLA-B*44:02; [8])?
**A.** ≥ 67100 nM

**Q.** Which results are given for TEVMPVSMA?
**A.** Kd (HLA-B*18:01; [2]): 11100 nM; Kd (HLA-B*44:03; [2]): 3850 nM; Kd (HLA-B*45:01; [2]): 182 nM; Kd (HLA-B*40:02; [2]): 79.7 nM; Kd (HLA-B*40:01; [2]): 15400 nM; Kd (HLA-B*44:02; [2]): 6840 nM

**Q.** Which results are given for SENDWFSCM?
**A.** Kd (HLA-B*18:01; [11]): 185 nM; Kd (HLA-B*44:03; [11]): 22.2 nM; Kd (HLA-B*45:01; [11]): 117 nM; Kd (HLA-B*40:02; [11]): 164 nM; Kd (HLA-B*40:01; [11]): 1400 nM; Kd (HLA-B*44:02; [11]): 21.1 nM

**Q.** What does the source list for GEILLLEWLA?
**A.** Kd (HLA-B*18:01; [2]): 4670 nM; Kd (HLA-B*44:03; [2]): 110 nM; Kd (HLA-B*45:01; [2]): 17.2 nM; Kd (HLA-B*40:02; [2]): 16400 nM; Kd (HLA-B*40:01; [2]): 20.3 nM; Kd (HLA-B*44:02; [2]): 610 nM

**Q.** NEYTGNYQCG was tested. Which Kd (HLA-B*18:01; [2]) did it give?
**A.** ≥ 33400 nM

**Q.** And the Kd (HLA-B*44:03; [2])?
**A.** 7520 nM

**Q.** And the Kd (HLA-B*45:01; [2])?
**A.** 1790 nM

**Q.** And the Kd (HLA-B*40:02; [2])?
**A.** ≥ 28500 nM

**Q.** And the Kd (HLA-B*40:01; [2])?
**A.** ≥ 69600 nM

**Q.** And the Kd (HLA-B*44:02; [2])?
**A.** ≥ 70200 nM
